Assay results: the nanobody polyreactivity screen of Harvey et al. (2022)

test: yeast display, Sf9 membrane polyspecificity reagent, FACS + sequencing; frameworks hold sequencing errors
Procedure, shortened: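 Polyreactivity labels are assigned by the sorting gate from which each nanobody was recovered. The gates were low and high (top ~1%), set on anti-HA fluorescence for expression and streptavidin fluorescence for reagent binding. Before sorting, galactose-induced (36–48 hours) yeast display cells were stained for 1 hour at 4 °C with 10% biotinylated, detergent-solubilized Sf9 membrane reagent.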

Row | Sequence | polyreactivity (PSR sort gate)
1 | QVQLVESGGGLVQAGGSLRLSCAASGRTFGGYAMGWYRQAPGKERELDASITSGGSTYYADSVKGRFTISRDNAKNTVYLEMNSLKPEDTAVYYCAADTYFETSTRAIPSNAYWGQGTQVTVSS | low polyreactivity
2 | QVQLVESGGGLVQAGGSLRLSCAASGRTFGGYAMGWYRQAPGKERELVAAITYSGGSTYYADSVKGRFTISRDNAKNTVYLQMNSLKPEDTAVYYCAAEGSSSYTYDYWGQGTQVTVSS | low polyreactivity
3 | QVQLVESGGGLVQAGGSLRLSCAASGRTFGGYPMGWYRQAPGKERELVASINSGGSTYYADSVKGRFTISRDNAKNTVYLQMNSLKPEDTAVYYCAKRLGGRTLRKYGYWGQGTQVTVSS | high polyreactivity
4 | QVQLVESGGGLVQAGGSLRLSCAASGRTFGIKAMGWYRQAHGKERELVAVISFGDGGTYYADSVKGRFTISRDNAKNTVYLQMNSLKPEDTAVYYCATDYQSTSVWGGHFVINPYDYWGQGTQVTLSS | low polyreactivity
5 | QVQLVESGGGLVQAGGSLRLSCAASGRTFGINAMGWYRQAPGKERELVAVISFGDGGTYYADSVKGRFTISRDNAKNTVYLQMNSLKPEDTAVYYCAAAIWYIKLYFVRRTEHGYWGQGTQVTVSS | low polyreactivity
6 | QVQLVESGGGLVQAGGSLRLSCAASGRTFGINAMGWYRQAPGKERELVAVISGSGGNTYYADSVKGRFTISRDNEKNTVYLQMNSLKPEDTAVYYCATRYEKFRYDYWGQGTQVTVSS | low polyreactivity
7 | QVQLVESGGGLVQAGGSLRLSCAASGRTFGIYAMGWYRQAPGKERELVASITRSSGGTYYADSVKGRFTISRDNAKNTVYLQMNSLKPEDTAVYYCAARLQGRYKYGYWGQGTQVTVSS | high polyreactivity
8 | QVQLVESGGGLVQAGGSLRLSCAASGRTFGKNAMGWYRQAPAKERELVAAISWGGGRTFYADSVKGRFTISRDNAKNTVYLQMNSLKPEDTAVYYCNAVQYPRRAKYDYWGQGTQVTVSS | low polyreactivity
9 | QVQLVESGGGLVQAGGSLRLSCAASGRTFGKNAMGWYRQAPGKEREFVAAITSRGGSTYYADSVKGRFTISRDNAKNTVYLQMNSLIPEDTAFYYCNREYKRPSQRTEHYYWGQGTQVTVSS | low polyreactivity
10 | QVQLVESGGGLVQAGGSLRLSCAASGRTFGKYAMGWYRQAPGKERELVAAISSGGTTYYADSVKGRFTISRDNAKNTVYLQMNSLKPEDTAVYYCAADPRYPYNYWGQGTQVTVSS | low polyreactivity
11 | QVQLVESGGGLVQAGGSLRLSCAASGRTFGKYAMGWYRQAPGKERELVAVITWRGVSTYADSVKGRFTISRDNAKNTVYLQMNSLKPEDTSFYYCAKTRVRGTEFGYWGLGTQVTVSS | low polyreactivity
12 | QVQLVESGGGLVQAGGSLRLSCAASGRTFGLNAMGWYRQATGKERELVAAITSGGSTYYADSVKGRFTISRDNAKKTVYLQMNSLKPEDTAVYYCAVTYNGDSSWPGDYWGQGTQVTVSS | low polyreactivity
13 | QVQLVESGGGLVQAGGSLRLSCAASGRTFGLYAMGWYRQAPGKERELVADINGSGTRTYYADSVKGRFTISRDNAKNTVYLQMNSLKPEDTAVYYCYGRYHWLYYWGQGTQVTVSS | high polyreactivity
14 | QVQLVESGGGLVQAGGSLRLSCAASGRTFGLYAMGWYRQAPGKVRELVAAISWGGGRTYYADSVKGRFSISRDNAKNSVYLQMNSLKPEDTAVYYCNAVYSPRDYVGGYDYWGQGTQVTVSS | high polyreactivity
15 | QVQLVESGGGLVQAGGSLRLSCAASGRTFGLYAMGWYRQSPGKERELVATISRGGSTYYADSVKGRFTISRDNAKNTVYLQMNSLKPEDTAVYYCNAAKYTWYYGYNYWGQGTKVTVSS | high polyreactivity
16 | QVQLVESGGGLVQAGGSLRLSCAASGRTFGLYTMGWYRQAPGKERELVAAISRSGGSTYYADSVKGRFTISRDNAKNTVYLQMNSLKPEDTAVYYCATRRSFSDRYDYWGQGTQVTVSS | high polyreactivity
17 | QVQLVESGGGLVQAGGSLRLSCAASGRTFGNNAMGRYRLAPGKVWELVAAINWSGASTYYADSVKGRFTISRDNAKNTVYLQMNSLKPEDTAVYYCAADYSYIYGFDYWGQGTQVTVSS | low polyreactivity
18 | QVQLVESGGGLVQAGGSLRLSCAASGRTFGNNAMGWYRQAPGKERELVAAISRSGGSTYYADSVKGRFTISRDNAKNTVYLQMNSLKPEDTAVYYCAARLYGGYDWGQGTQVTVSS | high polyreactivity
19 | QVQLVESGGGLVQAGGSLRLSCAASGRTFGPNGMGWYRQAPGKERELLAVITSSGGRTYYADSVKGRFTISRDNAKNTVYLQMNSLKPEDTAVYYCAADAKKFGGTKNAELDYWGQGTQVTVSS | low polyreactivity
20 | QVQLVESGGGLVQAGGSLRLSCAASGRTFGPYAMGWYRQAPGKERELVAAITSSGGSTYYADSVKGRFTISRDNAKNTVYLQMNSLKPEDTAVYYCNNLYWRQSQDYDYWGQGTQVTVSS | low polyreactivity
21 | QVQLVESGGGLVQAGGSLRLSCAASGRTFGQNAMGWYRQAPGKERELVAVISSRGGSTYYADSVKGRFTISRDNAKNTVYLQMNSLKPEDTAVYYCNTDAQSRQTIRTGYDSWGQGTQVTVSS | high polyreactivity

Row | Sequence | polyreactivity (PSR sort gate)
22 | QVQLVESGGGLVQAGGSLRLSCAASGRTFGRNAMGWYRQAPGKERELVAAINSGGSTKYADSVKGRFTISRDNAKNTVYLQMNSLKPEDTSVYYCARRGGFSYYYWGQGTQVTVSS | high polyreactivity
23 | QVQLVESGGGLVQAGGSLRLSCAASGRTFGRNAMGWYRQAPGKERELVAAITWSGVTTYYADSVKGRFTISRDNAKNTVYLQMNSLKPEDTAVYYCATGTLYSDGAIYGYWGQGTQVTVSS | low polyreactivity
24 | QVQLVESGGGLVQAGGSLRLSCAASGRTFGRNAMGWYRQSPGKERELVAAISRSGASTYYADSVMGRFTLSRDNAKNTVYLQMNSLKPEDTAVYDCAARYSYYHGSAGFDYWGQGTQVTVSS | high polyreactivity
25 | QVQLVESGGGLVQAGGSLRLSCAASGRTFGRNDMAWYRQAQGKERELVAGISIGGGTTYYADSVKGRFTISRDNAKNTVYLQMNSLKPEDTAVYYCAARSWSYLHRYGYWGQGTQVTVSS | high polyreactivity
26 | QVQLVESGGGLVQAGGSLRLSCAASGRTFGRYAMGWYRQAPGKERELLARISYSGGSTYYADSVKGRFTISRDNAKNTDYLQMNSLKPEDTAVYYCAASFFGRFDPDRSYWGQGTQVTVSS | high polyreactivity
27 | QVQLVESGGGLVQAGGSLRLSCAASGRTFGRYAMGWYRQAPGKERELVAAINKNGGSTFYADSVKGRFTISRDNAKNTVYLQMNSLKPEDTAVYYCNRTAYVRGYPPWGYDYWGQGTQVTVSS | low polyreactivity
28 | QVQLVESGGGLVQAGGSLRLSCAASGRTFGRYAMGWYRQAPGKERELVASITSRGGSTYADSVKGRFTISRDNAKNTVYLQMNSLKPEDTAVYYCASRDKYRYWYAYWRQGTQVTVSS | high polyreactivity
29 | QVQLVESGGGLVQAGGSLRLSCAASGRTFGRYAMGWYRQAPGKERELVATITSGGSTNYADSVKGRFTISRDNAKNTVYIQMKSMKPEDTAVYYCAAEFSPSRWAYSEGALRYYYWGQGTQVTVSS | low polyreactivity
30 | QVQLVESGGGLVQAGGSLRLSCAASGRTFGRYAMGWYRQAPGKERELVAVINGGGSTYYADSVKGRFTISRDNAKNTVYLQMKSLKPEDTAVYYCNAGYYWGQGTQVTVSS | high polyreactivity
31 | QVQLVESGGGLVQAGGSLRLSCAASGRTFGRYDMGWYRQAPGKERELVAAITGGVITTYADSVKGRFTISRDNAKNTVYLQMKSLKREDTAVYDCAARYNVFPSPHYYYWGQGTQVTVSS | low polyreactivity
32 | QVQLVESGGGLVQAGGSLRLSCAASGRTFGRYVMGWYRQAPGKERELVAAIRSRGGSTYYADSVKGRFTISRDNAKNTVYLQMNSLKPEDTAVYYCNAVDRKPYRTYDYWGQGTQVTVSS | high polyreactivity
33 | QVQLVESGGGLVQAGGSLRLSCAASGRTFGSNAMGWYRQAPGKERELVAAITKSGGGTYYADSVKGRFTISRDNAKNTVYLQMNSLKPEDTAVYYCAARRYARSGGALYPYDYWGQGSQVTVSS | high polyreactivity
34 | QVQLVESGGGLVQAGGSLRLSCAASGRTFGSNLMGWYRQAPGKERELVADISVSGGSTNYADSVKGRFTISRDNAKNTVYVQLNSLNPEDTAVYYCAASQLSDWPPYYYDFDYWGQGTQVTVSS | low polyreactivity
35 | QVQLVESGGGLVQAGGSLRLSCAASGRTFGSYAMGWYRQAPGKERELVAAITWSGTGTYYADSVKGRFTISRDNAKNTVYLQMNSLKPEDTAVYYCNTDRWYAYDWGQGTQVTVSS | high polyreactivity
36 | QVQLVESGGGLVQAGGSLRLSCAASGRTFGTYAMGWYRQAPGKERELVAVITNGGGTYYADSVKGRFTISRDNAKNTVYLQMNSLKPEDTAVYYCNTDRYGLRRWVYSYWGGYDYWGQGTQVTVSS | low polyreactivity
37 | QVQLVESGGGLVQAGGSLRLSCAASGRTFGVNAMGWYRQAPGKERELVAAISRSGGSTYYADSVKGRFTISRDNAKTTVYLQMNSLKPEDTEVYYCAKSYFGHHLTGFGYWGQGTQVTVSS | low polyreactivity
38 | QVQLVESGGGLVQAGGSLRLSCAASGRTFGVYAMGWSRQAPGKERELVAGIRWRGGSTYYADSVKGRFTISRDNEKKTVYFQMNSLKPEETAVYYCAADVYLVKYDYWGQGTQVTVSS | low polyreactivity
39 | QVQLVESGGGLVQAGGSLRLSCAASGRTFGVYAMGWYRQAPGKERELVAAISATGGSTYYADSVKGRFTISRDNAKNTVYLQMNSLKPEDTAVYYCARGGTTLYWGQGTQVTVSS | high polyreactivity
40 | QVQLVESGGGLVQAGGSLRLSCAASGRTFGVYAMGWYRQAPGKERELVAASRWSGGGTYYADSVKGRFTISRDNAKNTVYLQMNSLKPEDTAVYYGAATFQNSPYSRYTDMYYWGQGTQVTVSS | low polyreactivity
41 | QVQLVESGGGLVQAGGSLRLSCAASGRTFGVYMGWYRQAPGKERELVAVISSGDSTNYADSVKGRFTISRDNAKNTVYLLMNSLKPEDTAVYYCNAYGSDRLTLDDYWGQGTQVSVSS | low polyreactivity
